According to patent US20100184658A1 (published 2010):

Experiments:
Assay in all cases: cell-based or functional assay
[1] = target: MAPK8 (JNK1) Mitogen-activated protein kinase 8 (UniProt P45983 1-427, limits assumed)
SRPK2 = SRPK2 (UniProt P78362 1-688, limits assumed)
NEK2 = target: T1, NEK2 (UniProt P51955 1-445, limits assumed)
T1 sequence (looked up): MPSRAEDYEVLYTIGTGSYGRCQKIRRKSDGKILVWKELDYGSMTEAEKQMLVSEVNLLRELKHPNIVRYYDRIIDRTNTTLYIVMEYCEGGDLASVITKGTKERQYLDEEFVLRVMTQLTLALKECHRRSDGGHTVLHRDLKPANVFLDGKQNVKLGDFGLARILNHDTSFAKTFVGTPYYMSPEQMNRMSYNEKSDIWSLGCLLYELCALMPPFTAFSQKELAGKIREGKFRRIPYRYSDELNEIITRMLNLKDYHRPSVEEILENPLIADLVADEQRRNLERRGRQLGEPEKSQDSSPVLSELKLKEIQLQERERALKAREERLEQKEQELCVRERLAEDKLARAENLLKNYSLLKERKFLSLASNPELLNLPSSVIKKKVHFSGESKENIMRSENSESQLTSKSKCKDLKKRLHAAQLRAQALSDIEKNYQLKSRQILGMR

PIM1 Pim-1 oncogene = PIM1 Pim-1 oncogene (UniProt P11309 1-313, limits assumed)
Chain of PIM1 Pim-1 oncogene (P11309 whole entry): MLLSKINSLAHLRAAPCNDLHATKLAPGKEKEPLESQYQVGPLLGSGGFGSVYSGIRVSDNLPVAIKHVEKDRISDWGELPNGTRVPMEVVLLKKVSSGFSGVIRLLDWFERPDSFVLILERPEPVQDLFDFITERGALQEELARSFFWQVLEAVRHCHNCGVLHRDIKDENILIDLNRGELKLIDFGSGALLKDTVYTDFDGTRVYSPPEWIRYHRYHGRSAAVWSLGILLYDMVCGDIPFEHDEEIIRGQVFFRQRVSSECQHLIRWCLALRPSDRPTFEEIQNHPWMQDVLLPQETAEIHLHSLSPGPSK

AKT2 (PKB beta) = AKT2 (PKB beta) (human (printed as (h)), UniProt P31751 1-481, limits assumed)
GRK4 = GRK4 (UniProt P32298 1-578, limits assumed)
Chain of GRK4 (P32298 whole entry): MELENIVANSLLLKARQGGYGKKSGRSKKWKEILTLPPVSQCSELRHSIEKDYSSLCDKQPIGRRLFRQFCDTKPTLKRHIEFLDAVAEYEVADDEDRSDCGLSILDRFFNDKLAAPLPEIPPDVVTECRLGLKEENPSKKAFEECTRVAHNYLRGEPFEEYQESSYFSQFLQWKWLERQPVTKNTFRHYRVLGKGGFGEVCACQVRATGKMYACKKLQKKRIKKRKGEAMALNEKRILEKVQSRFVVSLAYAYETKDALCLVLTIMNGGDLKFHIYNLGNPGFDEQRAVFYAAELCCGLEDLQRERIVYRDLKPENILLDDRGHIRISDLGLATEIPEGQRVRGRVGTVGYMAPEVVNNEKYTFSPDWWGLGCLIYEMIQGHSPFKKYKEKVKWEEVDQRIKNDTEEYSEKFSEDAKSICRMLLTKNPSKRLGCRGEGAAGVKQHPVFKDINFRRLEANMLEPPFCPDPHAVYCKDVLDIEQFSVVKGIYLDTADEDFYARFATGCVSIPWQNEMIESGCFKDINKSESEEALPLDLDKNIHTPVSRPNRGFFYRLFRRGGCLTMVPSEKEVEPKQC

MELK = MELK (UniProt Q14680 1-340, limits assumed)
Chain of MELK (Q14680 1-340 limits assumed): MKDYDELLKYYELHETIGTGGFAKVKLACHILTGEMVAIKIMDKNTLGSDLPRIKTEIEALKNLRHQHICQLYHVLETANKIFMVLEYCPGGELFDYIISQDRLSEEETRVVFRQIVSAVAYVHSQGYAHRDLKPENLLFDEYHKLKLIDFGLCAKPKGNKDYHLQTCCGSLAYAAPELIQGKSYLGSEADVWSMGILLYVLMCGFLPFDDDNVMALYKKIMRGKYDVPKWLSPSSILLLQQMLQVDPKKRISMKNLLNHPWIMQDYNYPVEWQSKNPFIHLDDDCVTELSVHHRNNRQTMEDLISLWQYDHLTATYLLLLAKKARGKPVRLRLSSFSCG

DYRK4 = target: T2, DYRK4 (UniProt Q9NR20 1-520, limits assumed)
T2 sequence (looked up): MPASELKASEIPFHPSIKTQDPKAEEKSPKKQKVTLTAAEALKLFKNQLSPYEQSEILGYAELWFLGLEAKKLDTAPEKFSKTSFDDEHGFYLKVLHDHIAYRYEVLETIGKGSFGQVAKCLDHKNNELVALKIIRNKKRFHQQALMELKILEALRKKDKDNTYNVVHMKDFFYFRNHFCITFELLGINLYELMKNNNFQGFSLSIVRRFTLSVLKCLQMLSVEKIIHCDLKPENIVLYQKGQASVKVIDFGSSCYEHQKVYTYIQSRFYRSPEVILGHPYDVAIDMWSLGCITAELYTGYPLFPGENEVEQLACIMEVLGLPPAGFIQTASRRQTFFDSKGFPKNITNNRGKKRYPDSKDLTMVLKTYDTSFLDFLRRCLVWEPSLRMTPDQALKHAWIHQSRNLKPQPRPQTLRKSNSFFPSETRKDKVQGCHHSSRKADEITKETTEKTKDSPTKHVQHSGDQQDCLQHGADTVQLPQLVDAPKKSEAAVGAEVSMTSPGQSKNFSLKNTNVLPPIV

PKN1 (PRK1) = PKN1 (PRK1) (UniProt Q16512 1-942, limits assumed)
Chain of PKN1 (PRK1) (Q16512 whole entry): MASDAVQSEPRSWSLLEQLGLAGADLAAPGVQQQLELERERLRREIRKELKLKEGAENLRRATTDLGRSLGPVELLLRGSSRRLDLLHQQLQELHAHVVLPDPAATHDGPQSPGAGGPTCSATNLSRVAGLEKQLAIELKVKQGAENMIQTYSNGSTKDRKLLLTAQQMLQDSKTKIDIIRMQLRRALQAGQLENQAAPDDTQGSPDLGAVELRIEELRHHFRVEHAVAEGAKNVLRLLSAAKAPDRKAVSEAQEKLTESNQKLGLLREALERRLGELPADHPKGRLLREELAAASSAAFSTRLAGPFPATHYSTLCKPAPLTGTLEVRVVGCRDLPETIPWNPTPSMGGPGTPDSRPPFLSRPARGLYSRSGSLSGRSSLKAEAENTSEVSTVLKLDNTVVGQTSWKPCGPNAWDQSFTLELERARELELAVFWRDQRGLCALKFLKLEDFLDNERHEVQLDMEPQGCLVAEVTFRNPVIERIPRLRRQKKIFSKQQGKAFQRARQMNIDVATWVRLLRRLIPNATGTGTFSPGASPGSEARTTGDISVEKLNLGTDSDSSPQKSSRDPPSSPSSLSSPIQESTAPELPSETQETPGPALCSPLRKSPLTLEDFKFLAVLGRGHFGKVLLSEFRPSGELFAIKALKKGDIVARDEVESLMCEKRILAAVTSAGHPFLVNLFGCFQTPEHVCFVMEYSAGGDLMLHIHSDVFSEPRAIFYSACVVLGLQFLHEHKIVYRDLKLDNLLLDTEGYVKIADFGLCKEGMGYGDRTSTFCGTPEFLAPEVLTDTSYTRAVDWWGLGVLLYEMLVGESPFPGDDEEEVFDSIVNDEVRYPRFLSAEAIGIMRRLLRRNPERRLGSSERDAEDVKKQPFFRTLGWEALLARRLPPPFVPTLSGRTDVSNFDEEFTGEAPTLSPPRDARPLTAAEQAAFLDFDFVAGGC

GRK6 = GRK6 (UniProt P43250 1-576, limits assumed)
[2] = target: STK25 (YSK1) Serine/threonine kinase 25 (STE20 homolog, yeast) (UniProt O00506 1-426, limits assumed)
Chain of STK25 (YSK1) Serine/threonine kinase 25 (STE20 homolog, yeast) (O00506 whole entry): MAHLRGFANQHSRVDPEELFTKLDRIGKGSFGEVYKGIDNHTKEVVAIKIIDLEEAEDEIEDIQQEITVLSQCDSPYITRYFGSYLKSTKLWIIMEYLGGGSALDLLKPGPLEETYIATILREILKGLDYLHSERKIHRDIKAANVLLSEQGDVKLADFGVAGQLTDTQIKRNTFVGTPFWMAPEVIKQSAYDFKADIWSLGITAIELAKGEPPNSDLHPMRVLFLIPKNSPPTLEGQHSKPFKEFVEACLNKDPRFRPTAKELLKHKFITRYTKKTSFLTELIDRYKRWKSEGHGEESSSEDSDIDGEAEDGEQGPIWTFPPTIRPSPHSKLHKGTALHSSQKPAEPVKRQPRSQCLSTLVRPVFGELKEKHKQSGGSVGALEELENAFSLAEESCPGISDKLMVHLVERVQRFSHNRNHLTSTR

[3] = target: SYK Spleen tyrosine kinase (UniProt P43405 1-635, limits assumed)
ABL1 E255K = ABL1 E255K (UniProt P00519 1-1130, limits assumed)
CLK2 = CLK2 (UniProt P49760 1-499, limits assumed)
[4] = target: PAK4 P21(CDKN1A)-activated kinase 4 (UniProt O96013 1-591, limits assumed)
Chain of PAK4 P21(CDKN1A)-activated kinase 4 (O96013 whole entry): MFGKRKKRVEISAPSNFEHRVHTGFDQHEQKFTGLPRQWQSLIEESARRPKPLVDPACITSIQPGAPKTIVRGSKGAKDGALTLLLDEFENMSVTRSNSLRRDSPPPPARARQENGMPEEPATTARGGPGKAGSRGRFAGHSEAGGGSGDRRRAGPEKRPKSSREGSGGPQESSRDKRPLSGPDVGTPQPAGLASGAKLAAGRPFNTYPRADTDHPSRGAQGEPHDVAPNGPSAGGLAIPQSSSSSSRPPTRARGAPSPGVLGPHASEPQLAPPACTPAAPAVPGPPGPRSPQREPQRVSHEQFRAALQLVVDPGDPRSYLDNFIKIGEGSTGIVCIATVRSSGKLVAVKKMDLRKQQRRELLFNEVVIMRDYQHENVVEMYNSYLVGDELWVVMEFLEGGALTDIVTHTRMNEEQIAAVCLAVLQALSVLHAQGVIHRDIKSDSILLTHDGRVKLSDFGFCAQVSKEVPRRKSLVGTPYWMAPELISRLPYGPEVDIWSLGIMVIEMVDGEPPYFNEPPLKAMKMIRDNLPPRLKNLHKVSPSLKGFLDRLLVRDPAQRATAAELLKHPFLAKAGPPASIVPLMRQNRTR

[5] = target: T3, STK3 (MST2) Serine/threonine kinase 3 (STE20 homolog, yeast) (UniProt Q13188 1-491, limits assumed)
T3 sequence (looked up): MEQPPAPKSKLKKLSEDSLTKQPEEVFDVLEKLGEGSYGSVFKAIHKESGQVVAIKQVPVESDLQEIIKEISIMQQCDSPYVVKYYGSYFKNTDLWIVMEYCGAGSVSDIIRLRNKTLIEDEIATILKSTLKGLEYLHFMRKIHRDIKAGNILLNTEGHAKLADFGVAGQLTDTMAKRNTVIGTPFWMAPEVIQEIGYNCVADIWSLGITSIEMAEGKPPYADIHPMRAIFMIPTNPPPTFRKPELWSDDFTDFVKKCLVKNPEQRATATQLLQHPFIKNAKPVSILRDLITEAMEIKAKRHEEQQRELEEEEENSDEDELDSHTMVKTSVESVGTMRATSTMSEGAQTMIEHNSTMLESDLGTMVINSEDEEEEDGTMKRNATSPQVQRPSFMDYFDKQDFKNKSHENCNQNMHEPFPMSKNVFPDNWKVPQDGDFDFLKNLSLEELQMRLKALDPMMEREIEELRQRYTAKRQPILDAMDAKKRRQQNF

CHEK2 (CHK2) = CHEK2 (CHK2) (UniProt O96017 1-543, limits assumed)
Chain of CHEK2 (CHK2) (O96017 whole entry): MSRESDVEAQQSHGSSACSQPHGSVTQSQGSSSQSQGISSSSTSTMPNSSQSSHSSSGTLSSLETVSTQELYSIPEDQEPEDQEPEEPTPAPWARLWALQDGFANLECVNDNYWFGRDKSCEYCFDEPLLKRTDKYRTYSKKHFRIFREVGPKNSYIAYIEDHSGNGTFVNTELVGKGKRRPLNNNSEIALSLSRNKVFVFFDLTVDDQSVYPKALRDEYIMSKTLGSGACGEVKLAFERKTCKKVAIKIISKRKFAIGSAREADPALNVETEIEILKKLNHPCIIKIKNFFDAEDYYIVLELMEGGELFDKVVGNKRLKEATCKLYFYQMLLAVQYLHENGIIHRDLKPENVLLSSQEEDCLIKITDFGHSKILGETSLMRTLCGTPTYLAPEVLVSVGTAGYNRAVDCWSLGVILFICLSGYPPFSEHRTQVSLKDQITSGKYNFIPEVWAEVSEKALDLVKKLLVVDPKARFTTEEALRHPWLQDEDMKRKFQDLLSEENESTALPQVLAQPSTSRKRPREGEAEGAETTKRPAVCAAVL
Note: test concentration or dose not given here.

Chain of SRPK2 (P78362 whole entry): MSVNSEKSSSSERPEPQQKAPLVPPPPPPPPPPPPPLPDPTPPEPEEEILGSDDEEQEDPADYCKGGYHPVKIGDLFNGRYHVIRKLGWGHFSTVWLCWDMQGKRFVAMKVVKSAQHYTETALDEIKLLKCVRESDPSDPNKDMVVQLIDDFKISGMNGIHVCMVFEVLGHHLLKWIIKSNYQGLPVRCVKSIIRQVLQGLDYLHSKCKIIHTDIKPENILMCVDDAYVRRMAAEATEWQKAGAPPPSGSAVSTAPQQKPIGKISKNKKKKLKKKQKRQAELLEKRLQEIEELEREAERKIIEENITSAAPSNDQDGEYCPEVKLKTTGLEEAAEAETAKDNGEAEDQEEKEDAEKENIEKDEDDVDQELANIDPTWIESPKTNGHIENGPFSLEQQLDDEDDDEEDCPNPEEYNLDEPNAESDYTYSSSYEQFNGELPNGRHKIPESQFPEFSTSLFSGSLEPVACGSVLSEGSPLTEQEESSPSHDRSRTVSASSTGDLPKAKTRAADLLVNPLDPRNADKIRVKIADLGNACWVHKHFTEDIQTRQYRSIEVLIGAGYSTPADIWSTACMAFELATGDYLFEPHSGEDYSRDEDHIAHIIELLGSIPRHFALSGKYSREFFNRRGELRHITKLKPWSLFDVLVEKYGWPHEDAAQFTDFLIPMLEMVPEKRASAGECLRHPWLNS
Chain of MAPK8 (JNK1) Mitogen-activated protein kinase 8 (P45983 whole entry): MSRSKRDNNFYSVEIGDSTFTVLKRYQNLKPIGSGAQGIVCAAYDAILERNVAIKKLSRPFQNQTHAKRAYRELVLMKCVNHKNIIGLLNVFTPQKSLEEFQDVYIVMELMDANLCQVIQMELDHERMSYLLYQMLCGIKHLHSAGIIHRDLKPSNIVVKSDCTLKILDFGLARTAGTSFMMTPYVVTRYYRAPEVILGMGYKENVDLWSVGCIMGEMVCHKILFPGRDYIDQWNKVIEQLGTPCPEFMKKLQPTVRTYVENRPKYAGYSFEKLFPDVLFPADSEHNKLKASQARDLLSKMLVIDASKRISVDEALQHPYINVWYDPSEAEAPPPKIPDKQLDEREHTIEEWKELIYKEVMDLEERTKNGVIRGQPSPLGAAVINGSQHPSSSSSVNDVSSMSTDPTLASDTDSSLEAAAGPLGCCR

Binder: SGRPPMIVWFNRPFLIAVSHTHGQTILFMAKVINPVGA [D3 peptide]
- % Inhibition mean [1]: 89%
- % Inhibition mean (SRPK2): 79.2%
- % Inhibition mean (NEK2): 89.6%
- % Inhibition mean (PIM1 Pim-1 oncogene): 89%
- % Inhibition mean (AKT2 (PKB beta)): 67.7%
- % Inhibition mean (GRK4): 58.6%
- % Inhibition mean (MELK): 85.8%
- % Inhibition mean (DYRK4): 61.2%
- % Inhibition mean (PKN1 (PRK1)): 64%
- % Inhibition mean (GRK6): 57.1%
- % Inhibition mean [2]: 93.1%
- % Inhibition mean [3]: 54%
- % Inhibition mean (ABL1 E255K): 65.6%
- % Inhibition mean (CLK2): 65.9%
- % Inhibition mean [4]: 47%
- % Inhibition mean [5]: 90.4%
- % Inhibition mean (CHEK2 (CHK2)): 62.1%
